Holding throughout (assay): ITC; PRPF40A construct (WW12, N-ext-WW12 or its mutant) in the cell, GB1-SF1 or GB1-SF3A1 construct in the syringe (as shown in Supplementary Figures 16 and 21); 25 °C, 20 mM sodium phosphate pH 6.5, 100 mM NaCl; one-site binding model; at least duplicates; affinities apparent
Holding throughout (conditions): both partners purified
(ITC needs no label: the signal is the heat of the interaction.)

Assay [1] deals with T1, GB1-SF3A1 C-ter Pro (residues 552-683) (UniProt Q15459 552-683).
T1 construct: His6-GB1-TEV site cassette of the pET24 vector, not cleaved; source: E. coli BL21(DE3), purified (Ni-NTA, SEC); not shown: GB1, N-terminal, kept
T1 sequence (looked up): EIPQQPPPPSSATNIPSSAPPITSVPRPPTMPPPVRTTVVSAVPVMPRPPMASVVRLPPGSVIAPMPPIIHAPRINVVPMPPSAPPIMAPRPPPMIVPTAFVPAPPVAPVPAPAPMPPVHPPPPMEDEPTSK

Assay [2] deals with T2, GB1-SF1 Pro BC (residues 468-594) (UniProt Q15637 468-594).
T2 construct: splicing factor 1 (SF1), residues 468-594; His6-GB1-TEV site cassette of the pET24 vector, not cleaved; also called SF1 BC; source: E. coli BL21(DE3), purified (Ni-NTA, SEC); not shown: GB1, N-terminal, kept
T2 sequence (looked up): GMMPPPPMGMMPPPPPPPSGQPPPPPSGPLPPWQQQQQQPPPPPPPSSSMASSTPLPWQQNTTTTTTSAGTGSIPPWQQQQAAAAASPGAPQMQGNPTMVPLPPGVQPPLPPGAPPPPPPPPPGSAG

For assay [3], the target named is T3, GB1-SF1 Pro BCD (residues 468-639) (UniProt Q15637 468-639).
T3 construct: splicing factor 1 (SF1), residues 468-639; His6-GB1-TEV site cassette of the pET24 vector, not cleaved; source: E. coli BL21(DE3), purified (Ni-NTA, SEC); not shown: GB1, N-terminal, kept
T3 sequence (looked up): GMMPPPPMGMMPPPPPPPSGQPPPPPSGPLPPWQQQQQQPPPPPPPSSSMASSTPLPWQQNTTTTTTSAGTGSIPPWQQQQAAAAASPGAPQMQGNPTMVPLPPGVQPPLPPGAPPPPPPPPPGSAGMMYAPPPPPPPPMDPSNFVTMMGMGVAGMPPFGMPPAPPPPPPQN

The target of assay [4] is T4, GB1-SF1 Pro ABCD (residues 410-639) (UniProt Q15637 410-639).
T4 construct: splicing factor 1 (SF1), residues 410-639, the complete proline-rich C-terminal region; His6-GB1-TEV site cassette of the pET24 vector, not cleaved; source: E. coli BL21(DE3), purified (Ni-NTA, SEC); not shown: GB1, N-terminal, kept
T4 sequence (looked up): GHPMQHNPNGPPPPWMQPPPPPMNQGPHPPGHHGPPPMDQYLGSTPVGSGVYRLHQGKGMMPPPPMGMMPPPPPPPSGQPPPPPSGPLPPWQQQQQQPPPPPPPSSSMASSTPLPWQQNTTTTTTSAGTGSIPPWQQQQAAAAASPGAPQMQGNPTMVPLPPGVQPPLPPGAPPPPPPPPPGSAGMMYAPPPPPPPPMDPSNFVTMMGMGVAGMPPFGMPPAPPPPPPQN

Assay [5] concerns the target T5, GB1-SF1 Pro CD (residues 539-639) (UniProt Q15637 539-639).
T5 construct: splicing factor 1 (SF1), residues 539-639; His6-GB1-TEV site cassette of the pET24 vector, not cleaved; source: E. coli BL21(DE3), purified (Ni-NTA, SEC); not shown: GB1, N-terminal, kept
T5 sequence (looked up): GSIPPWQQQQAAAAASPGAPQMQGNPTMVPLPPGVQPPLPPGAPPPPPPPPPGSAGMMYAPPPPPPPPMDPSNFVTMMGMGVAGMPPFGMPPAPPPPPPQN

Data on one molecule can be found in PMC11079029, “Intramolecular autoinhibition regulates the selectivity of PRPF40A tandem WW domains for proline-rich motifs” (Nature Communications, 2024).

B1: PRPF40A WW12 (tandem WW domains, residues 141-236) (domain or fragment, human, UniProt O75400 141-236, looked up)
chain: GAKSMWTEHKSPDGRTYYYNTETKQSTWEKPDDLKTPAEQLLSKCPWKEYKSDSGKPYYYNSQTKESRWAKPKELEDLEGYQNTIVAGSLITKSNL
notes: A few vector residues probably remain at the N-terminus after TEV cleavage (pETM11, NcoI site); 15N-labelled in the NMR experiments; also called PRPF40A WW tandem; WW12 wt; source: E. coli BL21(DE3), purified (Ni-NTA, TEV digestion, reverse Ni-NTA, SEC); not shown: His6, N-terminal, cleaved
As for B1, the Kd in assay [1] amounted to 19.3 ± 4.5 µM; in assay [2] it was 6.83 ± 2.33 µM; in assay [3] it was 3.65 ± 0.71 µM; in assay [4] it was 4.91 ± 0.51 µM; in assay [5], 3.8 ± 0.69 µM.
